Test results: the domain aggregation screens of Martell et al. (2025)
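Also: 20 min heating vs room temperature control held 20 min.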

Assay: soluble fraction after stress (log2 fold change); higher = more stays soluble; pooled small domains, quantitative proteomics
Conditions: stress: 75 degC
With “HMTRETTQAWWEARQTLPSGEQRSAASLSQEASHVRRFYRWAMQQGLTDRNPADWLPDVRQK” the “soluble fraction (log2)” value was -0.603. With “HMTRIHEEVVNQVHDLVKEGRFKAGDQLPSERELAEIFKVSRTSVREALRALETQGLIISRTGMGNFIAD” the “soluble fraction (log2)” value was -0.249. With “HMTRILTEDDIVNFLIRQPDTAYIIAKSFNENERKVKELLDLLIKKNKVREEIVNGVVSYAVN” the “soluble fraction (log2)” value was -0.229. In the case of “HMTRKQTIYEFLRRMKSQHGLDAVYSTEEIANAVGVSRANVSSDLNRLFEEQLVEKLPGWPVKYRA”, the “soluble fraction (log2)” value is reported as -0.344. With “HMTRNEFMTALRKRLSHLPAEEQDAALKYYEEYFDEAESEEEAARQLGSPDAIADRILADYGAG” the “soluble fraction (log2)” value was 0.327. With “HMTRPLVILEDVKFPSYNEIVSLTLPDGTRRGGQVLEVSGNKAIVQVFEGTSGIDVKDTHIELTKSS” the “soluble fraction (log2)” value was 0.237. For “HMTRQEFIRKLQEALNGKLDAATIQDHLKFYDDYIIEEMRKGKSEQEVLELLGDPWAIAKTIVDAS”, the “soluble fraction (log2)” value was 0.669. In the case of “HMTRQKEAILALLTDSRGEALSASELLARLTRSGSSIGRTTVYRLLSQLVDDGVVRAWRDASRGITLYELS”, the “soluble fraction (log2)” value is reported as -1.1. For “HMTRQPSAKEHAVLTAVKEGLRRDGRAPTVRALADMTGAASTSTVQRRISALIDLGLLRRTDGTLEVVE”, the “soluble fraction (log2)” value was 0.0806. With “HMTRRVIRAPAAGIMRSNVKLGDLVKEGDVIAWIGEHEIKAPLTGMVRGLLNDGLAVVGGFKIGDI” the “soluble fraction (log2)” value was 0.286. In the case of “HMTSEPFYNPRRPQPYWTSETDRHTTYADAVRALAREFSETPEWVESNMGETNDLQEIRRNLSRVKSG”, the “soluble fraction (log2)” value is reported as 0.125. With “HMTSESWAEKSRSLAAAGLIVMGRDAQLKIEGLTNLDPLIEAATASSTRLLTGQTIDELLTIVP” the “soluble fraction (log2)” value was -0.551. With “HMTSEVLTNATIVKMVKAKLSDDIIIDEINNARVNFDVSPEGIKSLTAQNVTEPVIETMKKAVAAQESI” the “soluble fraction (log2)” value was 0.467. In the case of “HMTSFDVMLKSAGANKLAVVKLVKELTGLGLKEAKDIVDAAPSKVKEGVSKEEAEELQKQLTGAGAEVEL”, the “soluble fraction (log2)” value is reported as -0.113. With “HMTSHYTVLGVKETDTIEMIRTHYRKLILQFHPDKNQHLTEEERKKLEVKVLQIREAYEKIKKEK” the “soluble fraction (log2)” value was -0.433. In the case of “HMTSIISLAKARSIALQKVPGATSKNIHLSLDDEDDKQVYEGEIKYKQMEYVFEIDAKTGTFLKWTSERD”, the “soluble fraction (log2)” value is reported as -1.92. With “HMTSKTLSAVEGEGLRLDKFLSNQLPELSRTKIQKMINDGLVFVNNTEAKASLILDGSEFIAYTVPD” the “soluble fraction (log2)” value was -0.243. With “HMTSLAEQAYRHIRDKLSNGAFVPGEQLVNRVLATEIGVSVIPVREAINRLATEGLVKHVPGSGAFVRQ” the “soluble fraction (log2)” value was -0.0622. In the case of “HMTSLYDILGIAKTADSQTIKTAFKKKALLYHPDKNNGNLKKEEIFKKISTAYQILSDPKSRANYDLSIA”, the “soluble fraction (log2)” value is reported as -0.272. For “HMTSMNNTEELIDMANKIIDNNPNMVLKYKEGRNVLDFFIGQVMKETKGRANPSATSKIFKDLLEK”, the “soluble fraction (log2)” value was -0.0827. In the case of “HMTSNKTVPYSELKGLISTGKIEYVGIGNTQIRAVSKSGAGIVTYTARRVIPDDTLIPELEKNGIAYGGI”, the “soluble fraction (log2)” value is reported as -0.838. In the case of “HMTSNSLNLKDEISAFLTKNAGISYSAERIAHALNMDNADQFTPIIQTLAQLEREKKVRVTDKGEFEAVIK”, the “soluble fraction (log2)” value is reported as 0.02. With “HMTSSKISFIDPVNGGKVSVSLENSTLEKLQNRFGVNSVVRNEAGDVELKDKAQEFVAGWFADIAYTRG” the “soluble fraction (log2)” value was -0.0154. In the case of “HMTTAGTAIVQTGNSGKLNLREQAYANAGILGRYSNGTAVTVLQKGAAWSYVEVKGQKGYMMSKFLKFTS”, the “soluble fraction (log2)” value is reported as -1.53. For “HMTTEIVRMKKDVKIGQEITAKDIEVVEVGAYNLPDEVIRSSEEVVGKYVSSELLKGEYVLPSKISDTP”, the “soluble fraction (log2)” value was 0.22. For “HMTTEPYILTRMPDGSIKAEPNLNYKGPEQKPGSNIQVKGADGRIYLVPIDGQGKPGKPQLVD”, the “soluble fraction (log2)” value was 0.0898. In the case of “HMTTGLETYPGKIAVVSDDFIDGEGRVQLDGALWRAKTKDHQQLKQGDHVTIVNVKGLTLTVMPDD”, the “soluble fraction (log2)” value is reported as 0.716. With “HMTTGREGLIGAVGTVRQAIAPEGYVFVEGELWRAKSPAGPLEPGTTVRVIAIDGLTLTVMPAE” the “soluble fraction (log2)” value was -0.965. In the case of “HMTTGTVKWFNDAKGFGFITPDDRSVDVFVHYSNIVGQSGRRTLMEGERVEYEAIEGPKGPQATDVARA”, the “soluble fraction (log2)” value is reported as -0.223. For “HMTTIFDNINGELRRRHLTQQDLAKTIEIDRRTWSKWQDKNDMPASVLLQIAKWLNVTLDYLTRD”, the “soluble fraction (log2)” value was -2.57. For “HMTTIKLTQEDVEKIKSLPKRTFLIGNLQQTGLYDEKTRRFYYLDANGEWNGRLAIINTPPPPPPPP”, the “soluble fraction (log2)” value was 0.0273. In the case of “HMTTKYMVLVNWVKEKVRTNELKTGEKLYSEHEFSRMFHMSRQTVRHGISILERENIVERRQGSGTFIKDA”, the “soluble fraction (log2)” value is reported as -2.95. In the case of “HMTTKYVAVHESKDGYWTIASKPSSKEDAEAMLGGTPKNEVGKVVTLEEAKAHKKTLGEEYLYE”, the “soluble fraction (log2)” value is reported as 0.218. In the case of “HMTTMTTGQRIAAKRKEQGLSQENLGEQLGVSRQAIYKWESDASLPDIDKLIALSRLFGVSTDYLLLE”, the “soluble fraction (log2)” value is reported as -0.584. With “HMTTQIPEEVQKRVNQFYEALDEEDYGEAKQILEELEKATAPDHPTLIQMRTRYEFDTMELR” the “soluble fraction (log2)” value was 0.329. In the case of “HMTTTPAERQRTILRSLNRVDPVSVDALARLTGVSVVTIRRDLSDLASRDLIRRVHGGALLPTR”, the “soluble fraction (log2)” value is reported as -1.62. In the case of “HMTTYSVDLGDIRAVADSDGKLVELTLHAAVTTHYSHSELADRLNLAFTALREEAQADYETRY”, the “soluble fraction (log2)” value is reported as 0.223. For “HMTTYTGVVTGSGVNVRSGAGTSYPVVGSKTMGDVVTITETVSADGMIWGKIDIGWISMNYVRM”, the “soluble fraction (log2)” value was -2.75. In the case of “HMTVAQEIEARRATIRSSDPAEMARFIRWLIMEGHTEPAADELKKYAENFPEASATTKQLQALLAAR”, the “soluble fraction (log2)” value is reported as -0.311. With “HMTVDIADALRVLGLSDAPDWSDVRAAHRRAIVRTHPDAGGSAGDAARVNQAFDLLRKISGNGERPIPG” the “soluble fraction (log2)” value was 0.012. In the case of “HMTVDTSELEEMIDDLIKEHPNEWERYSSGEKKVQGFFVGQVMKATSGQADGKAINQILSKRVKS”, the “soluble fraction (log2)” value is reported as 0.803. In the case of “HMTVDYDKFTKDTVVQHNKFGKGVIIMTSGDGEDKIASIAFQGLGVKRFSLAIAASNLKILGKVNED”, the “soluble fraction (log2)” value is reported as -2.48. In the case of “HMTVEVFQSLVQTFREMSPRKAASILEELKRDLAVEILLHMPEDGVAAILARMDPARAARLTEQLALEKD”, the “soluble fraction (log2)” value is reported as -1.86. With “HMTVGEAHLEEVYLKVLKQVEEQGTALIRTTDVETGRPAAGIRRRYMRGTLPDEWVAKFEALPGWTWAPG” the “soluble fraction (log2)” value was -3.04. With “HMTVGEKIQKYRKDLDLSQEELGQKLLVSRQTISLWEKDQTVPTIDNLIRLREIFGVSVDEILGF” the “soluble fraction (log2)” value was -0.818. In the case of “HMTVIARQIPPLVPRMLDGLEAFIKLDVPFEEKERLARVQMLRSSLDRDNLDTAEIFRAVLEAYNIELQY”, the “soluble fraction (log2)” value is reported as 0.352. With “HMTVKKEIAKVKPTPLGWLRVRETPSLNGAEITKVNTGESYDVLDKETGWIKIKVSETVEGWVSDAYIELS” the “soluble fraction (log2)” value was -0.319. With “HMTVLPTENDAKALVGLNEDEAVKIIEGNGWTYRIGSRDGEQFMLTEDYSTSRLTLGIEKSIVVTATI” the “soluble fraction (log2)” value was -0.543. For “HMTVLVPNLTGKTLLEAEILLDQAGLKKGDVYSESNKNVPKDHIIRQKPAPNTKIQKGATIDIYRSLGPE”, the “soluble fraction (log2)” value was -0.0471. In the case of “HMTVNLPPKQKAAILLMSLPPEVSAQLFKELGPDEVHAITLEISKLPPISPDVRAQVIDEFLHSS”, the “soluble fraction (log2)” value is reported as -0.641. In the case of “HMTVSIGSVIARERRLRGDTQQELAERLGVSKAAVSKWEVGQSIPDVTLLPRIAAYFSLTLDEL”, the “soluble fraction (log2)” value is reported as -2.45. For “HMTVVLPGESLTVNIIQEGKELGQGVGYLDDGTMVVIEDGRRYIDQTIEVTVTRVLQTVAGRMIFAQLT”, the “soluble fraction (log2)” value was -4.46. In the case of “HMTWDSFIGYTVTDVQKGYLGEITDVDETTINVLLRVDHKGEELLIPAVEELITEADHEARSLTVSLPEGL”, the “soluble fraction (log2)” value is reported as -0.398. With “HMTYFIADLIGLQVYTDSGELLGKVDDIYNSGSADIYVVKDELGKQILLPGIKDVIKQIDVDNEKIIVHLI” the “soluble fraction (log2)” value was -1.24. In the case of “HMTYIQSNLKFLRNKMNISQEELAKRLFVTHQTVSNHENGKSQPNFEMIEKYASFFNVPFEDLIHKDLSL”, the “soluble fraction (log2)” value is reported as -0.68.
